In patent EP3418296A1:

Columns and labels:
[1] = biological target: native Sclerotium rolfsii lectin (SRL) (Sclerotium rolfsii); assay: inhibition by mucin of native lectin binding to PA-1 cells
[2] = biological target: native Sclerotium rolfsii lectin (SRL) (Sclerotium rolfsii); assay: inhibition by mucin of native lectin binding to Molt 4 cells
[3] = biological target: native Sclerotium rolfsii lectin (SRL) (Sclerotium rolfsii); assay: inhibition by mucin of native lectin binding to COLO 205 cells
[4] = biological target: native Sclerotium rolfsii lectin (SRL) (Sclerotium rolfsii); assay: inhibition by mucin of native lectin binding to Jurkat cells
[5] = biological target: COLO 205 cultured colon cells (unnamed cell surface lectin receptors); assay: lectin binding to cultured COLO 205 cells, lectin alone (method not described)
[6] = biological target: Molt 4 cultured leukemic cells (unnamed cell surface lectin receptors); assay: lectin binding to cultured Molt 4 cells, lectin alone (method not described)
[7] = biological target: Jurkat cultured leukemic cells (unnamed cell surface lectin receptors); assay: lectin binding to cultured Jurkat cells, lectin alone (method not described)
[8] = biological target: PA-1 cultured ovarian cells (unnamed cell surface lectin receptors); assay: lectin binding to cultured PA-1 cells, lectin alone (method not described)

Substance: mucin
- % positive cells (lectin + mucin) [1]: 1.63%
- % positive cells (lectin + mucin) [2]: 0.24%
- % positive cells (lectin + mucin) [3]: 0.99%
- % positive cells (lectin + mucin) [4]: 0.5%

Substance: native Sclerotium rolfsii lectin (SRL)
- % positive cells [5]: 91.7%
- % positive cells [6]: 88.5%
- % positive cells [7]: 33.8%
- % positive cells [8]: 96.7%
